These are literature values, as cited in publication PMC11970764.

pKd: −log10 of the molar value.

The data set deals with HIF-1α PAS-B (Homo sapiens) (UniProt Q16665). Put plainly: ITC. A general note: In ITC the heat of successive injections is recorded.
Sequence of UniProt Q16665 (Q16665 238-349): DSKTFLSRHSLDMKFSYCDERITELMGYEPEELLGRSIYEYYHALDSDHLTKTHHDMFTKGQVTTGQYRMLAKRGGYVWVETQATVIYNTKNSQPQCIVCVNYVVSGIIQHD

Broadly, the pKd is the Kd on a negative log10 scale, so that one unit is a factor of ten. As for Cyclo-C(TAT)LLFVY, the pKd is 6.91.
